Substrate in data set [1]: Nc1ncnc2c1ncn2[C@@H]1O[C@H](COP(=O)(O)OP(=O)(O)OP(=O)(O)O)[C@@H](O)[C@H]1O
As to the kind of experiment: purified protein. The settings on record: salmon sperm DNA, 5 mM MgCl2, pH 8.0, 37 °C, labelled compound. It is filed as biochemical, Mycolicibacterium smegmatis.

Substrate in data set [2]: O=c1ccn([C@@H]2O[C@H](COP(=O)(O)OP(=O)(O)OP(=O)(O)O)[C@@H](O)[C@H]2O)c(=O)[nH]1
Kind of data set: labelled UDP formation from labelled UTP, TLC, Michaelis-Menten fit. The settings on record: salmon sperm DNA, 5 mM MgCl2, pH 8.0, 37 °C, labelled compound. It is filed as biochemical, Mycolicibacterium smegmatis.

As usually defined, the Km is the concentration of substrate that gives half-maximal velocity. By kcat is commonly meant the number of substrate molecules converted per active site and unit of time at saturation.

Residue numbers refer to the chain shown, from its start. Names and notes keep the numbering of the source.

B1: UvrD1 (Mycolicibacterium smegmatis MC2 155) (protein)
chain: MTSPSATPFAAETDQLLDGLNPQQRQAVLHEGSPLLIVAGAGSGKTAVLTRRIAYLLAEREVGVGQVLAITFTNKAAAEMRERVVQLVGPRAKAMWVSTFHSTCVRILRNQASLLPGLNSNFSIYDSDDSRRLLMMIGKDLGLDTKRYSPRLLANGISNLKNELIGPEQAAAEASEASDEMATVIAQVYGEYQRRLRAANALDFDDLIGETVAVLQAFPQIAQYYRRRFRHILVDEYQDTNHAQYVLVRELVGHHLEDHDGVPPSELCVVGDADQSIYAFRGATIRNIEDFERDFPDATTILLEQNYRSTQTILNAANAVIARNTGRREKRLWTDAGQGELIVGYVADNEHDEARFVADEIDALTDRHGYNYNDIAVFYRTNNSSRALEEVFIRAGIPYKVVGGVRFYERREIRDIVAYLRVLDNPGDSVSMRRILNTPRRGIGDRAEACVAVYAENTGVSFNEALQAAAEGRVPMLNTRSEKCIASFVQMLDDLRGKLDEELGDLVEAVLERTGYRRELEASSDPQDLARLDNLNELVSVAHEFSIDLANAQALAEESDEPVDEDIPDTGVLAQFLERVSLVADADDIPEEGSGVVTMMTLHTAKGLEFPAVFVTGWEDGMFPHMRALGDPNELSEERRLAYVGITRARQRLYLSRAKVRSSWGQPMLNPESRFLREIPQELIDWRRIEAPTPAYAAPGRMSSSGGGGIGFGSPRPSPNRPGGGRNKPLMVLQPGDRVTHDKYGLGRVEEVAGTGESAMSLIDFGSAGRVKLMHNHAPLQKL
In the case of B1, in data set [1], the Km stood at 260 ± 40 µM and the kcat came out at 265 ± 22 s⁻¹.

B2: UvrD1 (Mycolicibacterium smegmatis MC2 155; Q24A) (protein)
chain: B1 chain with Q24A
In the case of B2, the figures for the Michaelis-Menten constant (Km) in data set [1] and in data set [2] were 690 ± 50 µM and 1210 ± 130 µM, respectively. Besides, the kcat in data set [1] came out at 95 ± 3 s⁻¹; in data set [2], 86 ± 5 s⁻¹.

The record behind these values is publication PMC2761027.
